T1: DVL1, O14640
T1 sequence (O14640 246-333, limits assumed, looked up): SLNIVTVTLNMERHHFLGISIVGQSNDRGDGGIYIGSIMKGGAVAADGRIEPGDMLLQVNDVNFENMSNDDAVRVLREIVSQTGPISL

T2: SHROOM2, Q13796
T2 sequence (Q13796 21-118, limits assumed, looked up): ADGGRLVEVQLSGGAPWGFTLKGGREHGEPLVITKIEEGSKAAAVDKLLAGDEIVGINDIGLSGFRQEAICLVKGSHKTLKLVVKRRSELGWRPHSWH

T3: PDZD4, Q76G19
T3 sequence (Q76G19 125-224, limits assumed, looked up): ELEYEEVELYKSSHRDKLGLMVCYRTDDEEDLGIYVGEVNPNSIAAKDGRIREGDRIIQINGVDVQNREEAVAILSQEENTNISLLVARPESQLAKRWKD

T4: MAGI2_1, Q86UL8
T4 sequence (Q86UL8 12-111, limits assumed, looked up): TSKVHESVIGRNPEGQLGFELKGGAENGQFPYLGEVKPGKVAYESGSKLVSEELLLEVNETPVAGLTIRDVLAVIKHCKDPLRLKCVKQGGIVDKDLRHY

T5: SHROOM4, Q9ULL8
T5 sequence (Q9ULL8 5-102, limits assumed, looked up): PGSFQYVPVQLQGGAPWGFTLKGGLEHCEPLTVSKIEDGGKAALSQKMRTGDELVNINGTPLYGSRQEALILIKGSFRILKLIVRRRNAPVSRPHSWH

T6: PDZD2_5, O15018
T6 sequence (O15018 2617-2716, limits assumed, looked up): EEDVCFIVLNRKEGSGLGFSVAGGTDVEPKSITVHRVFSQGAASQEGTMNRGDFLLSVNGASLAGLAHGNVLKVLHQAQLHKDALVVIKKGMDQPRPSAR

T7: GIPC1, O14908
T7 sequence (O14908 128-223, limits assumed, looked up): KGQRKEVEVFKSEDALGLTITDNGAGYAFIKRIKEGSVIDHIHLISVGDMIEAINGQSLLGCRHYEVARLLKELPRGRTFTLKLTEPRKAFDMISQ

T8: PDZD2_4, O15018
T8 sequence (O15018 723-823, limits assumed, looked up): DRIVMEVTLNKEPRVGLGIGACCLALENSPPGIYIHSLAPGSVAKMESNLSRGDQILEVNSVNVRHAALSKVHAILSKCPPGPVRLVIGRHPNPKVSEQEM

T9: USH1C_2, Q9Y6N9
T9 sequence (Q9Y6N9 206-303, limits assumed, looked up): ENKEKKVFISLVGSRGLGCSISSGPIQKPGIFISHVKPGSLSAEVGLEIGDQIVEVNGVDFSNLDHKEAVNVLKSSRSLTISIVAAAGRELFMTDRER

T10: GRIP1_1, Q9Y3R0
T10 sequence (Q9Y3R0 48-146, limits assumed, looked up): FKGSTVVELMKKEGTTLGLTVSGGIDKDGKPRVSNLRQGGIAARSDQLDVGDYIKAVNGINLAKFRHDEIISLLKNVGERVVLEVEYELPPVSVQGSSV

T11: APBA3_2, O96018
T11 sequence (O96018 480-570, limits assumed, looked up): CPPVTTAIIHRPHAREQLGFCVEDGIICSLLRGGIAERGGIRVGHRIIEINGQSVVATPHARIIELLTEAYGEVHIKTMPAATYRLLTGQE

T12: TJP3_1, O95049
T12 sequence (O95049 6-103, limits assumed, looked up): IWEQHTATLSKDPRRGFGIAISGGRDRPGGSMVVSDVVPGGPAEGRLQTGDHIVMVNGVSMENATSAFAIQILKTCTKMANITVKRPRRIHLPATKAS

T13: MLLT4, P55196
T13 sequence (P55196 1002-1103, limits assumed, looked up): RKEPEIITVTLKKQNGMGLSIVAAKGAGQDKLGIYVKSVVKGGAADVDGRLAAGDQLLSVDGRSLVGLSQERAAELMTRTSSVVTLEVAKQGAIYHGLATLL

B1: CYSLTR2, Q9NS75 (peptide)
chain: SVWLRKETRV
B2: HPV67-E6, A4U7F2 (peptide)
chain: SRPQRTQTQV
B3: TJP2, Q9UDY2 (peptide)
chain: QSARYRDTEL
B4: KIR3DL3, Q8N743 (peptide)
chain: PKTPPTDTSV
B5: GRASP, Q7Z6J2 (peptide)
chain: RSLEEEESQL
B6: HPV16-E6, P03126 (peptide)
chain: SSRTRRETQL

Molecular target: MAGI3_4, Q5TCQ9
Experiment: holdup assay
Parameters: key: below the threshold = too weak to quantify, mostly under pKd 3.1 to 4
Conditions: plain residues with an end cap or a label only (N-terminal biotin on a linker: ttds)

Chain of MAGI3_4, Q5TCQ9 (Q5TCQ9 716-815): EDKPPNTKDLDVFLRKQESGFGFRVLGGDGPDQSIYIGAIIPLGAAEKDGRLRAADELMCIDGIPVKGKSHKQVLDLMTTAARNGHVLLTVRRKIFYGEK

Binder | pKd
B1 | below the threshold
B2 | below the threshold
B3 | below the threshold
B4 | below the threshold
B5 | below the threshold
B6 | below the threshold

Molecular target: T1, DVL1, O14640
Experiment: holdup assay
Parameters: key: below the threshold = too weak to quantify, mostly under pKd 3.1 to 4
Conditions: plain residues with an end cap or a label only (N-terminal biotin on a linker: ttds)

Binder | pKd
B1 | 4.32
B2 | below the threshold
B3 | below the threshold
B4 | below the threshold
B5 | below the threshold
B6 | below the threshold

Molecular target: T2, SHROOM2, Q13796
Experiment: holdup assay
Parameters: key: below the threshold = too weak to quantify, mostly under pKd 3.1 to 4
Conditions: plain residues with an end cap or a label only (N-terminal biotin on a linker: ttds)

Binder | pKd
B1 | 4.35
B2 | below the threshold
B3 | below the threshold
B4 | below the threshold
B5 | below the threshold
B6 | below the threshold

Molecular target: T3, PDZD4, Q76G19
Experiment: holdup assay
Parameters: key: below the threshold = too weak to quantify, mostly under pKd 3.1 to 4
Conditions: plain residues with an end cap or a label only (N-terminal biotin on a linker: ttds)

Binder | pKd
B1 | below the threshold
B2 | below the threshold
B3 | below the threshold
B4 | 4.14
B5 | below the threshold
B6 | below the threshold

Molecular target: T4, MAGI2_1, Q86UL8
Experiment: holdup assay
Parameters: key: below the threshold = too weak to quantify, mostly under pKd 3.1 to 4
Conditions: plain residues with an end cap or a label only (N-terminal biotin on a linker: ttds)

Binder | pKd
B1 | below the threshold
B2 | below the threshold
B3 | below the threshold
B4 | below the threshold
B5 | below the threshold
B6 | below the threshold

Molecular target: LIMK1, P53667
Experiment: holdup assay
Parameters: key: below the threshold = too weak to quantify, mostly under pKd 3.1 to 4
Conditions: plain residues with an end cap or a label only (N-terminal biotin on a linker: ttds)

Chain of LIMK1, P53667 (P53667 155-268): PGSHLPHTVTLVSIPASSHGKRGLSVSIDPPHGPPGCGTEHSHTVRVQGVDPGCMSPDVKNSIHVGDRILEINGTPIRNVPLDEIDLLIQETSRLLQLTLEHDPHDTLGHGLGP

Binder | pKd
B1 | below the threshold
B2 | below the threshold
B3 | below the threshold
B4 | below the threshold
B5 | 4.27
B6 | below the threshold

Molecular target: DLG2_1, Q15700
Experiment: holdup assay
Parameters: key: below the threshold = too weak to quantify, mostly under pKd 3.1 to 4
Conditions: plain residues with an end cap or a label only (N-terminal biotin on a linker: ttds)

Binder | pKd
B1 | 5.26
B2 | 4.25
B3 | below the threshold
B4 | below the threshold
B5 | below the threshold
B6 | 4.92

Molecular target: T5, SHROOM4, Q9ULL8
Experiment: holdup assay
Parameters: key: below the threshold = too weak to quantify, mostly under pKd 3.1 to 4
Conditions: plain residues with an end cap or a label only (N-terminal biotin on a linker: ttds)

Binder | pKd
B1 | below the threshold
B2 | below the threshold
B3 | below the threshold
B4 | below the threshold
B5 | below the threshold
B6 | below the threshold

Molecular target: MAGI1_6, Q96QZ7
Experiment: holdup assay
Parameters: key: below the threshold = too weak to quantify, mostly under pKd 3.1 to 4
Conditions: plain residues with an end cap or a label only (N-terminal biotin on a linker: ttds)

Chain of MAGI1_6, Q96QZ7 (Q96QZ7 1146-1238): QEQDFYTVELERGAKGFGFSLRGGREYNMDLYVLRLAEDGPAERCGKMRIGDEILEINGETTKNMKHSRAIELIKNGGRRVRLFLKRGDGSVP

Binder | pKd
B1 | below the threshold
B2 | below the threshold
B3 | 4.71
B4 | 4.22
B5 | below the threshold
B6 | below the threshold

Molecular target: T6, PDZD2_5, O15018
Experiment: holdup assay
Parameters: key: below the threshold = too weak to quantify, mostly under pKd 3.1 to 4
Conditions: plain residues with an end cap or a label only (N-terminal biotin on a linker: ttds)

Binder | pKd
B1 | below the threshold
B2 | below the threshold
B3 | below the threshold
B4 | below the threshold
B5 | 4.22
B6 | below the threshold

Molecular target: MAGI1_4, Q96QZ7
Experiment: holdup assay
Parameters: key: below the threshold = too weak to quantify, mostly under pKd 3.1 to 4
Conditions: plain residues with an end cap or a label only (N-terminal biotin on a linker: ttds)

Chain of MAGI1_4, Q96QZ7 (Q96QZ7 other isoform, or with tags, fused parts or gaps): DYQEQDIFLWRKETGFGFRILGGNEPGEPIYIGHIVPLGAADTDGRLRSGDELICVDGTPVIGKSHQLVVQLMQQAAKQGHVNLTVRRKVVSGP

Binder | pKd
B1 | below the threshold
B2 | below the threshold
B3 | below the threshold
B4 | below the threshold
B5 | below the threshold
B6 | below the threshold

Molecular target: MAGIX, Q9H6Y5
Experiment: holdup assay
Parameters: key: below the threshold = too weak to quantify, mostly under pKd 3.1 to 4
Conditions: plain residues with an end cap or a label only (N-terminal biotin on a linker: ttds)

Chain of MAGIX, Q9H6Y5 (Q9H6Y5 118-211): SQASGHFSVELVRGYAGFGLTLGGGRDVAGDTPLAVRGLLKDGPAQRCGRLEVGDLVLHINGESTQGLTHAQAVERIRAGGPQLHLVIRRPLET

Binder | pKd
B1 | below the threshold
B2 | below the threshold
B3 | below the threshold
B4 | below the threshold
B5 | below the threshold
B6 | below the threshold

Molecular target: T7, GIPC1, O14908
Experiment: holdup assay
Parameters: key: below the threshold = too weak to quantify, mostly under pKd 3.1 to 4
Conditions: plain residues with an end cap or a label only (N-terminal biotin on a linker: ttds)

Binder | pKd
B1 | below the threshold
B2 | below the threshold
B3 | below the threshold
B4 | below the threshold
B5 | 4.1
B6 | 4.13

Molecular target: T8, PDZD2_4, O15018
Experiment: holdup assay
Parameters: key: below the threshold = too weak to quantify, mostly under pKd 3.1 to 4
Conditions: plain residues with an end cap or a label only (N-terminal biotin on a linker: ttds)

Binder | pKd
B1 | 4.48
B2 | below the threshold
B3 | below the threshold
B4 | below the threshold
B5 | below the threshold
B6 | below the threshold

Molecular target: T9, USH1C_2, Q9Y6N9
Experiment: holdup assay
Parameters: key: below the threshold = too weak to quantify, mostly under pKd 3.1 to 4
Conditions: plain residues with an end cap or a label only (N-terminal biotin on a linker: ttds)

Binder | pKd
B1 | below the threshold
B2 | below the threshold
B3 | below the threshold
B4 | below the threshold
B5 | below the threshold
B6 | 3.92

Molecular target: Inadl_7, Q8NI35
Experiment: holdup assay
Parameters: key: below the threshold = too weak to quantify, mostly under pKd 3.1 to 4
Conditions: plain residues with an end cap or a label only (N-terminal biotin on a linker: ttds)

Chain of Inadl_7, Q8NI35 (Q8NI35 1219-1332): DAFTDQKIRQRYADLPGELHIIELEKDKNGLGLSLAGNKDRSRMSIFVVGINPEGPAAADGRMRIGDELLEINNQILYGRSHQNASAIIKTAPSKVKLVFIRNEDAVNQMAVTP

Binder | pKd
B1 | below the threshold
B2 | 4.46
B3 | below the threshold
B5 | below the threshold
B6 | below the threshold

Molecular target: MAGI1_5, Q96QZ7
Experiment: holdup assay
Parameters: key: below the threshold = too weak to quantify, mostly under pKd 3.1 to 4
Conditions: plain residues with an end cap or a label only (N-terminal biotin on a linker: ttds)

Chain of MAGI1_5, Q96QZ7 (Q96QZ7 986-1098): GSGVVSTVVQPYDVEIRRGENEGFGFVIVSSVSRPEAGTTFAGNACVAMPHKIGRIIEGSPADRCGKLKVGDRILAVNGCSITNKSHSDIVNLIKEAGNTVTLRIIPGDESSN

Binder | pKd
B1 | 4.57
B2 | 4.35
B3 | below the threshold
B4 | below the threshold
B5 | below the threshold
B6 | 4.69

Molecular target: DVL2, O14641
Experiment: holdup assay
Parameters: key: below the threshold = too weak to quantify, mostly under pKd 3.1 to 4
Conditions: plain residues with an end cap or a label only (N-terminal biotin on a linker: ttds)

Chain of DVL2, O14641 (O14641 260-359): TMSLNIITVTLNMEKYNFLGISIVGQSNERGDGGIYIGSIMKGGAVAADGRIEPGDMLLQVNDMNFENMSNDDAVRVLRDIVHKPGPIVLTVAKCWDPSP

Binder | pKd
B1 | below the threshold
B2 | below the threshold
B3 | below the threshold
B4 | below the threshold
B5 | below the threshold
B6 | below the threshold

Molecular target: CARD14, Q9BXL6
Experiment: holdup assay
Parameters: key: below the threshold = too weak to quantify, mostly under pKd 3.1 to 4
Conditions: plain residues with an end cap or a label only (N-terminal biotin on a linker: ttds)

Chain of CARD14, Q9BXL6 (Q9BXL6 558-663): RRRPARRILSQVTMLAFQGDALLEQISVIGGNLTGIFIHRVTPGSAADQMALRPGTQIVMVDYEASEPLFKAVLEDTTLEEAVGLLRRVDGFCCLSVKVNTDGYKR

Binder | pKd
B1 | below the threshold
B2 | below the threshold
B3 | below the threshold
B4 | below the threshold
B5 | below the threshold
B6 | below the threshold

Molecular target: T10, GRIP1_1, Q9Y3R0
Experiment: holdup assay
Parameters: key: below the threshold = too weak to quantify, mostly under pKd 3.1 to 4
Conditions: plain residues with an end cap or a label only (N-terminal biotin on a linker: ttds)

Binder | pKd
B1 | below the threshold
B2 | below the threshold
B3 | below the threshold
B4 | below the threshold
B5 | below the threshold
B6 | below the threshold

Molecular target: T11, APBA3_2, O96018
Experiment: holdup assay
Parameters: key: below the threshold = too weak to quantify, mostly under pKd 3.1 to 4
Conditions: plain residues with an end cap or a label only (N-terminal biotin on a linker: ttds)

Binder | pKd
B1 | below the threshold
B2 | below the threshold
B3 | below the threshold
B4 | below the threshold
B5 | 4.18
B6 | below the threshold

Molecular target: T12, TJP3_1, O95049
Experiment: holdup assay
Parameters: key: below the threshold = too weak to quantify, mostly under pKd 3.1 to 4
Conditions: plain residues with an end cap or a label only (N-terminal biotin on a linker: ttds)

Binder | pKd
B1 | below the threshold
B2 | below the threshold
B3 | below the threshold
B4 | below the threshold
B5 | below the threshold
B6 | below the threshold

Molecular target: T13, MLLT4, P55196
Experiment: holdup assay
Parameters: key: below the threshold = too weak to quantify, mostly under pKd 3.1 to 4
Conditions: plain residues with an end cap or a label only (N-terminal biotin on a linker: ttds)

Binder | pKd
B1 | below the threshold
B2 | below the threshold
B3 | below the threshold
B4 | below the threshold
B5 | below the threshold
B6 | below the threshold
